Experimental data published in the nanobody polyreactivity screen of Harvey et al. (2022).

Assay: yeast display, Sf9 membrane polyspecificity reagent, FACS + sequencing; frameworks hold sequencing errors
Procedure, shortened: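 Sorting gates, low and high (top ~1%), were placed on anti-HA fluorescence to track expression and on streptavidin fluorescence to track reagent binding. A clone's polyreactivity label is taken from the gate it came out of. The reagent was 10% biotinylated, detergent-solubilized Sf9 membrane, applied for 1 hour at 4 °C to galactose-induced yeast display cells.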

Row | Sequence | polyreactivity (PSR sort gate)
1 | QVHLVESGGGLVQAGGSLRLSCAASGSIIGLYAMGWYRQAPGKERELVAYITGGGSTYYADSVKGRFTISRDIAKNTVYLQMNSLKPEDTAVYYCNKRGTEIGYDYWGQGTQVTVLS | low polyreactivity
2 | QVHLVESGGGLVQAGGSLRLSCAASGSILGGNAMGWYRQAPGKERELVAAITFSGGGTYYADSVKGRFTISRDNAKNTVYLQMNSLKPEDTAVYYCAADKDGYTYEFDYWGQGTQVTVSS | low polyreactivity
3 | QVHLVESGGGLVQAGGSLRLSCAASGSISTNYPMGWYRPAPGKERQLVAAISSSGGSTYYADSVKGRFTISRDNAKYTVYLQMNSLKPEDTAVYYCAATYWGRAYQGYRNLRYGYWGQGTQVTVSS | high polyreactivity
4 | QVHLVESGGGLVQAGGSLRLSCAASGSNFARNAMGWYRHAPGKERELVAAITYSGGRTYYADSVKGRFTISRDNAKNTVYLQMNSLKPEDTAVFYCAVKSFSGHGDYWGQGTEVTVSS | low polyreactivity
5 | QVHLVESGGGLVQAGGSLRLSCAASGSNYSYYGMGWYRQAPGKERELVAAITDGDGTNYADSVKGRFTISRDNAKNTVYLQMNSLIPEDTAVYYCNRDFWYGVSPGREFYLYDYWGQGTLVTVSS | low polyreactivity
6 | QVHLVESGGGLVQAGGSLRLSCAASGSTFAGNTMGWYRQAPGKERELVASITSDGSTDYADSVKGRFTISRDNAKNTVYLQMNSLKPEDTAVYYCAIARGLSKMDSWGQGTQVTVSS | low polyreactivity
7 | QVHLVESGGGLVQAGGSLRLSCAASGSTFGTNAMGWYRQAPGKERELVARINSSASTTYADSVKGRFTISRDNAKNTVYLQMNSLKPEDTAVYYCAKSSLNIYDYWGQGTQVTVSS | high polyreactivity
8 | QVHLVESGGGLVQAGGSLRLSCAASGSTFGWYAMGWYRPSPGKERELVAAIRSNGGSTYYADSLKGRFTISRDNAKNTVYLQMNSLKPEDTAVFYCAARGSPSKHHWYDYWGQGTQVTVSS | low polyreactivity
9 | QVHLVESGGGLVQAGGSLRLSCAASGSTFLLNAMGWYRQATGKERELVAGITGSGGRTYYADSVKGRFTISRDNAKNTVYLQMNSLKPEDTAVYYCAAYRNLYWYQHEYWGQGTLVTVSS | low polyreactivity
10 | QVHLVESGGGLVQAGGSLRLSCAASGSTFQSNAMGWYRQAPGKERELVATITQSGATTYYADSVKGRFTISRDNAKNTVYLQMNSLNPEDTAVYYCNVDTYQKRWFWLDLDGGYWGQGTQVTVSS | low polyreactivity
11 | QVHLVESGGGLVQAGGSLRLSCAASGSTFRPYAMGWYRQAPGKERELVAAITGSGGSTYYADSVKGRFTISRDNAKNTVYLQMISLKPEDTAVYYCNAVSTWRYYYWGQGTQVTVSS | high polyreactivity
12 | QVHLVESGGGLVQAGGSLRLSCAASGSTFSYYAMGWYRQAPGKERELVAAISRSGGSTYYPDSVKGRFTISRDNAKNTVYLQMNSLKPEDTADYSCNRYYYTVTREFDYWGQGSQVTVSS | low polyreactivity
13 | QVHLVESGGGLVQAGGSLRLSCAASGSTFYENAMGWYIQAPGKERELVAGISRGGGSTYYADSVKGRFTISRDNAKNTVYLQMNSLKPEDSAVYYCAAGSRVQGGYWGQGTQVTVSS | low polyreactivity
14 | QVHLVESGGGLVQAGGSLRLSCAASGSTFYYNAMGWYRLAPGKERELVASISYSGDSTYYADSVKGRFTISRVNAKNTVYLQMNSLKPEDTAVYYCNASTSFRSHLGFLYDYWGQGTQVTVSS | high polyreactivity
15 | QVHLVESGGGLVQAGGSLRLSCAASGYTFKRNAMGWYRQAPGKERELVAAINIRGSSTYYADSVKGRFTISRDNAKNTVYLQMNSLKPEDTAVYYCNAVPRYGYYWGQGTQVTVSS | high polyreactivity
16 | QVHLVESGGGLVQAGGSLRLSCAASGYTIRRNAMGWYRQAPGKERELVAAITSGGSTDYADSVKGRFTISRDNAKNTVYLQMISLKPEDTAVYYCAADGIYRGAWSTVYESPGYDYWGQGTQVTVSS | low polyreactivity
17 | QVHLVESGGGLVQAGGSLRLSCAATGSTFHYYAMGWYRQAPGKEMELVAAISSSGVSTYYADSVKGRFTISRDNAKNTVYLQMNSLKPEDTAVYYCNSASVFHYRWYYYWGHGTQVTVSS | high polyreactivity
18 | QVHLVESGGGLVQAGGSLRLSCAAYGRIFPLYTMGWYRQAPGKEREFVAAISRTGGRTYYADSVKGRFTISRDNAKNTVYLQMNSLKPEDTAVYYCAAPYFGKRQIREYYWGQGTQVTVSS | high polyreactivity
19 | QVHLVESGGGLVQAGGSLRLSCADYGSNLYYKAMGWYRQAPGKEMQVVAAISTGGRTNYADSVKGRFTISRDNAKNTVYLQMNSLKPEDSAVYYCAAETTTEITDTDYDYWGQGTQVTVSS | low polyreactivity
20 | QVHLVESGGGLVQAGGSLRLSCAPSGFIFDYYTMGWYRQAPGKESELVAAITWSGGRTNYADSVKGRFTISRDNAKYTVYLQMNSLKPEDTAVYYCNARRRARGAPYYLYGYSGQGTQVTVSS | low polyreactivity
21 | QVHLVESGGGLVQAGGSLRLSCAPSGRTFEQNAMGWYRQAPGKERELVASITSVGSTDYADSVKGRFTISRDNAKNTVYLQMNSLKPEDTAVYYCAKTLGSQKYDFDYWGQGTQVTVSS | low polyreactivity
22 | QVHLVESGGGLVQAGGSLRLSCASSGGIFVTYAMGWYRQAPGKERELVAAITSGDSTYYADSVKGRFTISRDNAKNTVYLQMNSLKPEDTAVYYCAVGSTDRVSAQGSYFTYDYWGQGTQVTVSS | low polyreactivity

Row | Sequence | polyreactivity (PSR sort gate)
23 | QVHLVESGGGLVQAGGSLRLSCASSGIIFKTYAMGWYRQAPGKERELVAAISSGGTTYYADSVKGRFTISRDNAKNTVYLQMNSLKPEDTAVYYCAARGYRSGGGYNYWGHGTQVTVSS | high polyreactivity
24 | QVHLVESGGGLVQAGGSLRLSCASSGYIIKYNAMGWYRPAPGKERELVAAISSIGGRTYYADSVKGRFTISRDNAKNTVYLQMNRLKPEDTAVYYCNAVGGRYTGWRYDDWGQGTQVTVSS | high polyreactivity
25 | QVHLVESGGGLVQAGGSLRLSCASTGFTFSRNTMGWYRQPPGKERELVARISASGGSTYYADSVKGRFTISRDNAKNTVYLQMNSLKPEDTAVYYCAAEGFYRSSPVRTYIGYDYWGQGSQVTVSS | high polyreactivity
26 | QVHLVESGGGLVQAGGSLRLSCPASGFTFDNYAMGWYRQPPGKERELVAAINWSGGRTYYADSVKGRFTISRDNAKNTVYLQMNSLKPEDTAVYYCGVPGYVRMDYWGQGTQVTVSS | high polyreactivity
27 | QVHLVESGGGLVQAGGSLRLSCPASGITFEHNAMGWYRQSPGKERELVAAIRWSGGSTYYADSVKGRFTISRDYAKYTVYLQMNSLKPEDTAVYYCAAYKPSTRRYDYWGQGTQVTVSS | high polyreactivity
28 | QVHLVESGGGLVQAGGSLRLSCSASGFTFGSNAMGWYRQAPGKERELVAAINYSGLRTYYADSVKGRFTISRDNAKNTVYLQMNSLKPEDTAVYDCAARTSIVTRLRYGYWGQGTQVTVSS | high polyreactivity
29 | QVHLVESGGGLVQAGGSLRLSCSASGRTFGWNVMGWYRQAPGKERELVAAISGSGGSTYYADSVKGRFTISRDNAKTTVYLQMNSLKPEDTAVYYCAALYGPGREYDYWGQGTQVTVSS | low polyreactivity
30 | QVHLVESGGGLVQAGGSLRLSCSASGSTFNTYAMGWYRQAPGKERELVAAITRGGGGTYYADSVKGRFTISRDNAKNTVYLQMNSLKPEDTAVYYCADKFRYSKYGYWGQGTQVTVSS | high polyreactivity
31 | QVHLVESGGGLVQAGGSLRLSCSASGSTFYAYAMGWYRQARGKERELVARIRWRGGRSYYADSVKGRFTISRDNAKNTVYLQMHSLKPEDTAVYYCAARLYGRYDSQDNYWGQGTQVTVSS | high polyreactivity
32 | QVHLVESGGGLVQAGGSLRLSFAASGRTFLRYDMGCYIQAPGKERELVAADSVKGRFTISRDNAKNTVYLQMNSLKAEDPAVYYCAADSTEYTGDASYIGYDYWGQGTHVTVSS | high polyreactivity
33 | QVHLVESGGGLVQAGGSLRLSSAASGFTFPWYAMGWYRQAPGKERELVATITRGGSTYYADSVKGRFTISRDNAKNTVYLQMNSLKPEDTAVYYCAVTYWRYHSYSPYDYWGQGTQVTVSS | high polyreactivity
34 | QVHLVESGGGLVQAGGSLRLSSAASGSIFYLNAMGWYRQAPGKERELVATISNGGSTNYADSVQGRFTISRDNAKNTVYLQMNSLKPEDTAVYYCDAASGGTVVGEGDYWGQGTQVTVSS | low polyreactivity
35 | QVHLVESGGGLVQAGGSLRLSSAASGSTFPVYAMGWYRQAPGKERELVASISSGGSTYYADSVQGRFTISRDNAKNSVYFQKNSLKPEDTAVYYCAKDPWVDSFVIYDDWGQGTEVTVSS | low polyreactivity
36 | QVHLVESGGGLVQAGGSLRLSSAASGSTFYKNAMGWYRQAPGKERELVAGISRRGGRTYYADSVKGRFTISRDNANNTVYLQMNSLKPEDTAVYYCNTGHEEDEYDYWGQGTQVTVSS | low polyreactivity
37 | QVHLVESGGGLVQAGGSLRLSSAAYGRTFKYNAMGWYRQAPGKRKELVAAISSGGSTYYADSVKGRFTISRDNAKKTVYFQMNSLKPEDTAVYYCAVRNTKSYWFGYWGQGTQVTVSS | high polyreactivity
38 | QVHLVESGGGLVQAGGSLRLTCAASGITLDGNAMGWYRQAPGKERELVAAITSGGGTNYADSVKGRFTISRDNAKNTVYLQMNSLKPVDTAVYYCCADKPNDGVGRLYDYWGQGTQVTVSS | low polyreactivity
39 | QVHLVESGGGLVQAGGSLRLTCAASGLTFIRYAMGCYRQAPGKERELVAAISSYGGTTYYADSVKGRFTISRDKAKNTVYLQMISLKPEDTSVYYCAAVLTYYRGSTWTFSGFAYDHWGQGTQVTVSS | high polyreactivity
40 | QVHLVESGGGLVQAGGSRRLSCAASGITYRFYTMGWYRQAPGKEREFVAAITYGVGRTDYADSVKGRFTISRDNAKNTVYLQMNSLNPEDTAVYYCAATWGYGYDYWGQGTQVTVSS | high polyreactivity
41 | QVHLVESGGGLVQAGGSRRLSCAASGRTVARPAMGWYRQAPGKERELVATITIGGRTYYADSVKGRFTISRDNAKNTVYLQMNSLKPEDTAVYYCAKRISGYRGDYWGQGTQVTVSS | high polyreactivity
42 | QVHLVESGGGLVQAGGTLRLRCAASGSIFCCNAMGWYRQAPGKERELVAAISTSGGTTYYADSVKGRFTISRDNAKNTVFLQMHSLKPEDTAVYYCAADVYSSRYLYDYWGHGTQVTVSS | low polyreactivity
43 | QVHLVESGGGLVQAGRSLRLSCAASGFIFKPYAMVRYRQAPGKERELVAAITVNGGTTYYADSVKARFTISRDNAKNTVYLQMNSLKPEDTAVYYCNRGRPGGPSWYHYDYWGQGTQVTVSS | high polyreactivity
